From the supplement of paper PMC10567573
± gives the standard deviation.

Experiment: protein stability index of a GFP-peptide fusion (GPS, HEK-293T) (PSI 1-6); higher = more stable
Details: c terminus: a fixed tail appended
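Note: 24-mer peptide tiles fused after GFP, lentivirally expressed, FACS-sorted into six equal bins by GFP/DsRed ratio, decoded by Illumina sequencing, PSI is the read-weighted mean bin number.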

Sequence | protein stability index (treatment: DMSO) | protein stability index (treatment: MLN4924 1 uM, 8 h)
ELRTAKDSDDDDDVAVTVDRDRFM [STX1A] | 5.37 ± 0.06 | 5.25 ± 0.14
DFWLMVWEQKVLVIVMTTRFEEGG [PTPN9] | 2.69 ± 0.77 | 2.58 ± 0.07
NTLRSQLGDRLNVEVDTAPTVDLN [KRT34] | 4.84 ± 0.18 | 4.84 ± 0.15
PSSFDPSMLLQRFSVAPHETQTQR [RNF180] | 4.12 ± 0.14 | 3.95 ± 0.13
EEDKDEKSSIYESDFQIEPGFYAT [MIA2] | 4.61 ± 0.062 | 4.46 ± 0.4
RDYAPPSRGYAYRDNGHSNRDEHS [RBMY1A1] | 4.59 ± 0.11 | 4.57 ± 0.36
LAVYIDKVRSLETENSALQLQVTE [LMNB1] | 2.25 ± 0.24 | 2.52 ± 0.083
MDLSERQEVSSVRSLSSTGSLPSH [DLC1] | 4.61 ± 0.25 | 4.47 ± 0.29
TLAQAHFNNGEYAEAEALYSAYIR [TTC32] | 2.98 ± 0.27 | 3.39 ± 0.21
RRWKLQVLDLRKNSHQDFWTVWSG [PRAME] | 2.46 ± 0.73 | 2.07 ± 0.44
LEFSLLSYAFGKFPTVVWTWWIMF [SOAT1] | 2.98 ± 0.6 | 2.95 ± 0.59
HTDMTNKQNKTPLDKSTTGVSEIL [FEM1B] | 4.85 ± 0.49 | 5.05 ± 0.25
ERVTVAKLTLENFYSNLILQHEER [STK38L] | 2.85 ± 0.28 | 2.99 ± 0.31
RTISCHVQNGTYLQRVLQNCPWPM [EMID1] | 2.12 ± 0.22 | 2.02 ± 0.17
AASLAGCLGALCENTCLLRGFSGG [TSPAN10] | 2.22 ± 0.57 | 2.37 ± 0.58
IRQYRLKKISKEEKTPGCVKIKKC [KRAS] | – | 3.31 ± 0.24
TSGGLLSEAPNEKLFFVDTGSKEK [NOP53] | 4.92 ± 0.25 | 4.84 ± 0.68
TSIQWKNHDQNNHNTDRSSHKDSM [EDNRA] | 5.05 ± 0.12 | 5.14 ± 0.2
ENKQVVIIHHMRLQAKALQLIVTA [INTS4] | 3.01 ± 0.56 | 3.03 ± 0.44
MNGGMSLVAFVLLNECVGTAYWAL [SLC22A15] | 3.91 ± 2 | 3.13 ± 0.38
SSTLNPSTSSSTQGDPAFPEMNGN [NOL4L] | 5.44 ± 0.25 | 5.44 ± 0.2
KAAQQGKQEENDVVEKLNLFLDLL [SNX8] | 2.45 ± 0.076 | 2.64 ± 0.34
WDERGRAAAYSPSEALLYALVHDH [ANKRD9] | 3.02 ± 0.37 | 2.95 ± 0.27

Sequence | protein stability index (treatment: DMSO) | protein stability index (treatment: MLN4924 1 uM, 8 h)
LLVGRYPFHDSDPSALFSKIRRGQ [TRIB1] | 2.22 ± 0.23 | 2.46 ± 0.53
GSSDKVYAHQMVRTDSREQKLDAF [MLH1] | 4.12 ± 0.13 | 4.13 ± 0.27
LPHPGLQVATSPDFDGKLKDIAGE [ATL3] | 4.91 ± 0.25 | 5.11 ± 0.26
ADSEQADIARMLYKDTCHELDELQ [ZMYND11] | 5.14 ± 0.24 | 4.99 ± 0.2
RDILVEADGAWVVKMFYSFQDKRN [STK38L] | 2.07 ± 0.29 | 2.3 ± 0.4
PLLKMDLNSEQAEQLERINDALSC [FAM98B] | 4.29 ± 0.24 | 4.36 ± 0.1
PCYDVRYAPSCAKCKKKITGEIMH [PDLIM7] | 3.04 ± 0.39 | 2.97 ± 0.38
MREMFFEDHIDDAKYCGHLYGLGS [CNOT7] | 2.68 ± 0.093 | 2.44 ± 0.28
EDLQDGDVRMGGSFRGAFSNSEKA [NET1] | 4.98 ± 0.63 | 5.252 ± 0.051
FALIAVVFLASGAVSVMKKCRKLE [SLC19A2] | 3.18 ± 0.35 | 3 ± 0.29
GMPSSLAHRIAAQTLLGTAKMLLH [PYCR3] | 2.4 ± 1.2 | 2.29 ± 0.3
ETQLKACASFIRTRLLLQFTQPQQ [C8orf76] | 2.93 ± 0.65 | 2.86 ± 0.88
EHPNLVRDHVETELLKEAELIRNI [TEKT4] | 4.6 ± 0.12 | 4.56 ± 0.21
LLRLSKHGPGHETPMTIPEFFRES [ACSBG2] | 2.73 ± 0.1 | 3.06 ± 0.25
QVESRWGYSGTSDRIRFTVNRRIS [BTBD1] | 3.38 ± 0.23 | 3.53 ± 0.37
GGRKGRTLLLQGHHDKVQSLCYLQ [WDFY1] | 2.54 ± 0.095 | 2.73 ± 0.32
RPSSILPPRRGVSGDRDENSFSLN [MAP2] | 4.67 ± 0.09 | 4.63 ± 0.12
RTARALLDRDALKQSLVVAVQDHG [PCDHGA10] | 3.72 ± 0.18 | 3.87 ± 0.34
KALFTCPFNGDCRITKDNRRHCQA [VDR] | 2.84 ± 0.31 | 3.21 ± 0.42
VIKENDPSGFLQISDALIRRVHLT [TRIM9] | 2.07 ± 0.26 | 2.39 ± 0.34
EKFVFFIGSKNGGKTTIILRCLDR [DYNC2LI1] | 3.27 ± 0.27 | 2.53 ± 0.22
QRDVGWAALLILFAASLLTVFAWL [C2CD2L] | 2.94 ± 0.34 | 3.05 ± 0.56
